From US11448657B2, “Methods and kits for assessing Heparanase procoagulant activity, compositions comprising Heparanase, and methods for the treatment of coagulation-related disorders” (RAMBAM MED-TECH, priority 2011, dated 2022)

How the values were obtained:
TF-factor VIIa complex = target: T1, TF-factor VIIa complex (Homo sapiens, UniProt P13726); experiment: Thrombin generation: prothrombin added to the factor Xa generation assay (chromogenic substrate for thrombin); assay type: biochemical; details: prothrombin 222 μM added, 15 min 37° C.
T1 construct: purchased American Diagnostica (Stanford, Conn., USA)
Experimental: FIG. 1D. Heparanase increases thrombin levels. Recombinant human TF, recombinant human factor VIIa, plasma-derived human factor X, and plasma-derived human prothrombin were incu-bated (15 min, 37° C.) in a total volume of 125 μL. Chromogenic substrate for the detection of thrombin was then added (1 mM). Human recombinant heparanase (Hepa) was added prior to the addition of the coagulation factors. The mean value±SD of three independent experiments is shown. Note a 3-fold increase in coagulation activity in the presence of heparanase.
In order to verify that factor Xa produced in the presence of heparanase is active, thrombin generation, the next step in the coagulation cascade, was examined. The experiment described above (FIG. 1A) was repeated and plasma-derived human prothrombin (222 μM) was added following the addition of factor X. After 15 minutes at 37° C., chromogenic substrate for thrombin was added (1 mM). In the presence of heparanase, thrombine generation was increased (FIG. 1D).

factor X = target: T2, factor X (Homo sapiens, UniProt P00742); experiment: Direct activation of factor X by heparanase; assay type: biochemical; details: heparanase with factor X, 15 min 37° C.
T2 construct: plasma-derived human factor X; purchased American Diagnostica (Stanford, Conn., USA); host or cells: purified from human plasma

ICR mice = experiment: LPS-induced sepsis in ICR mice; assay type: in vivo
Experimental: FIG. 19: IL-6 as a marker of sepsis severity Heparanase, LPS and LPS+heparanase were injected intra-peritoneal to ICR mice. Four hours later the blood was drawn and IL-6 level was measured by ELISA.
Heparanase, LPS and LPS+heparanase were injected intra-peritoneal to ICR mice. Four hours later the blood was drawn and thrombin-antithrombin (TAT) (20A) and D-dimer (20B) levels were evaluated by ELISA. Levels of TAT and D-dimer were reduced in the LPS+heparanase group compared to LPS alone in accordance with a severe activation of the coagulation system (p<0.05).
Methods: ICR mice, heparanase knock-out mice and heparanase over-expression mice were studied. Sepsis was induced by intra-peritoneal injection of lipopolysaccharides (LPS). Inhibitory peptides to TF/heparanase complex (number 11, 22, 5, 6, 7, 12, and 21 [SEQ IDs: 1-7]) were injected intra-peritoneal half an hour after heparanase or LPS. After 4 hours blood was obtained via sub-mandibular plexus puncture followed by mice sacrificing. Levels of thrombin-antithrombin (TAT), D-Dimer and IL-6 were tested using ELISA. Western blot to plasma factor VII and immunostaining of fibrinogen in lung, kidney and spleen were performed.

[1] = tested on: TF-heparanase interaction; experiment: Co-immunoprecipitation of TF and heparanase; assay type: binding, human; details: purified TF and GS3 active heparanase 1 μg/mL each
Experimental: FIGS. 7A-7B: Direct interaction between heparanase and TF FIG. 7A. Co-immunoprecipitation. Purified TF (1 μg/mL) and GS3 active heparanase (1 μg/mL) proteins were incubated with beads coupled to polyclonal anti-TF (upper panel), or anti-heparanase (lower panel) antibodies. Bound proteins were analyzed by immunoblotting for the presence of heparanase (upper panel) or TF (lower panel), using the respective monoclonal antibody.
The interaction between TF and heparanase was analyzed by co-immunoprecipitation (Co-IP). The ProFound™ Co-Immunoprecipitation Kit in which the antibody is coupled to gel support, was employed according to the manufacturer's instruction (Pierce, Rockford, Ill., USA). Briefly, coupling gel was washed with coupling buffer. Polyclonal anti-TF or polyclonal anti-heparanase (1453) antibodies (100 μg) and 5 M sodium cyanoborohydride, were added to the gel support and incubated at 4° C. for 4 hours. The gel was then washed with quenching buffer and incubated with the quenching buffer and sodium cyanoborohydride at 20° C. for 30 minutes. Next, the gel was washed 4 times with wash solution, once with elution buffer, and twice with coupling buffer. Purified proteins (0.5 μg) were added to the gel and incubated for 2 hours at 4° C. […]

[2] = LPS+heparanase compared to LPS alone, 4 hours
[3] = heparanase half an hour following LPS

T2 sequence (P00742 183-488 limits assumed): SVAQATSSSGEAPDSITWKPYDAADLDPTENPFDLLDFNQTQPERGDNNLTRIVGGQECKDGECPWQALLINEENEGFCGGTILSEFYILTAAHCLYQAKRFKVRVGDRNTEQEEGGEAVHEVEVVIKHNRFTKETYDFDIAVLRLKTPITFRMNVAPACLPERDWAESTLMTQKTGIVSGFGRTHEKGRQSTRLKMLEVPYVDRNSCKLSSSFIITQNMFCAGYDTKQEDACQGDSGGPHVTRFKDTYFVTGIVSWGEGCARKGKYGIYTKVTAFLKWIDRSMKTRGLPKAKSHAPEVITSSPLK
T2 sequence (P00742 41-179 limits assumed): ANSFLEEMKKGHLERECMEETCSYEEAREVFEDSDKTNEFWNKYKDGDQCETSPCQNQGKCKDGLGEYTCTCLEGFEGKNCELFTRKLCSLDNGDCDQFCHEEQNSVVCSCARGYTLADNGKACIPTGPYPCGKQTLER
T1 sequence (P13726 33-295): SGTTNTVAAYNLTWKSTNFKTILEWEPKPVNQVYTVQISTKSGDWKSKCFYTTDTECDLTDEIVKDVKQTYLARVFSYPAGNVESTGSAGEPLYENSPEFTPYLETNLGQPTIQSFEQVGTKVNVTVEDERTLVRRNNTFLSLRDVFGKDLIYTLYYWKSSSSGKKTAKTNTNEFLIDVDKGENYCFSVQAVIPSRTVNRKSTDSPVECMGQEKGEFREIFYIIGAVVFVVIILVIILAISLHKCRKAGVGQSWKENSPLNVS
T1 sequence (P08709 61-212 partner limits assumed): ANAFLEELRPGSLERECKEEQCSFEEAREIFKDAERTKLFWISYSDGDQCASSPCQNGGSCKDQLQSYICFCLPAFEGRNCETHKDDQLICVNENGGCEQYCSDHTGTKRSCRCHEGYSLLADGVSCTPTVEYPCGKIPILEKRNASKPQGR
T1 sequence (P08709 213-466 partner limits assumed): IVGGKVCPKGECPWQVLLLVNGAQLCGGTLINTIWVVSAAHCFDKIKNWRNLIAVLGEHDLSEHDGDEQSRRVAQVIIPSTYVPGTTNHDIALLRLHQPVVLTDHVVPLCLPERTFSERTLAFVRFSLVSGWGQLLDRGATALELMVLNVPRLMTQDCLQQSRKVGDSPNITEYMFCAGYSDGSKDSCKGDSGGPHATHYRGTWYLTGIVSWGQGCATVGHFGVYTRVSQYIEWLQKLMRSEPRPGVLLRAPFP

B1: heparanase: single chain GS3 active heparanase, comprised of the 8 kDa and 50 kDa heparanase heterodimer (8+50), recombinant human (protein, listed as Homo sapiens)
chain 1: DPAQDVVDLDFFTQEPLHLVSPSFLSVTIDANLATDPRFLILLGSPKLRTLARGLSPAYLRFGGTKTDFLIFDPKKE
chain 2: DPGKKFKNSTYSRSSVDVLYTFANCSGLDLIFGLNALLRTADLQWNSSNAQLLLDYCSSKGYNISWELGNEPNSFLKKADIFINGSQLGEDFIQLHKLLRKSTFKNAKLYGPDVGQPRRKTAKMLKSFLKAGGEVIDSVTWHHYYLNGRTATREDFLNPDVLDIFISSVQKVFQVVESTRPGKKVWLGETSSAYGGGAPLLSDTFAAGFMWLDKLGLSARMGIEVVMRQVFFGAGNYHLVDENFDPLPDYWLSLLFKKLVGTKVLMASVQGSKRRKLRVYLHCTNTDNPRYKEGDLTLYAINLHNVTKYLRLPYPFSNKQVDKYLLRPLGPHGLLSKSVQLNGLTLKMVDDQTLPPLMEKPLRPGSSLGLPAFSYSFFVIRNAKVAACI
modifications: single-chain GS3 linker
TF-factor VIIa complex
  increase in coagulation activity (thrombin level): 3 fold
Factor X
  factor Xa generation from factor X alone: no factor Xa was generated
ICR mice; [2]
  D-dimer level: reduced levels
  IL-6 level: further augmented IL-6 level compared to LPS alone
  TAT level: reduced levels
ICR mice; [3]
  blood leak from puncture: profuse blood leak from puncture
  factor VII by western blot: reduced levels
  fibrinogen by immunostaining: reduced levels
  levels of IL-1: maximal levels of IL-1
[1]
  interaction with TF: interacts with TF
